For 1 molecule, binding signal and Kd results are on record in publication PMC3695512, “Recognition of two distinct elements in the RNA substrate by the RNA-binding domain of the T. thermophilus DEAD box helicase Hera”.

In general, Kd refers to the free concentration of one partner at which half of the binding sites on the other are occupied at equilibrium, for simple one-to-one binding.

The target in one data set is T1, Hera_RBD R444A/R449A (Thermus thermophilus, UniProt O07897 424-510, R444A;R449A).
T1 sequence: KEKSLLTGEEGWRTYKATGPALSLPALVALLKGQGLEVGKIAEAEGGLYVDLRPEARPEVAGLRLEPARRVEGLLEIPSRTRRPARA
In words: fluorescence anisotropy; 5 mM Mg2+; Anisotropy: 50 mM Tris/HCl pH 7.5, 150 mM NaCl, 5 mM MgCl2 (Fig 2), 25 C, 50 nM RNA; EMSA: same Tris/NaCl, 12% glycerol, 25 C; NMR: 25 mM Bis-Tris/HCl pH 6.0, 50 mM NaCl, 10% D2O, 37 C. The conditions noted are these: protein: recombinant; label: 5'-fluorescein; hairpin with 5' single strand. A general note: In fluorescence polarisation assays a small probe gives low polarisation when free and higher when bound to something large.

The target of a further data set is T2, Hera_RBD K455A (Thermus thermophilus, UniProt O07897 424-510, K455A).
T2 sequence: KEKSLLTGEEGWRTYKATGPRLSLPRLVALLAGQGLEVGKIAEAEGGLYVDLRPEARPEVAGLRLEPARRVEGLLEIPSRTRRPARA
The data set is described as above. The conditions noted are these: protein: recombinant; label: 5'-fluorescein; hairpin with 5' single strand.

The target of the next data set is T3, Hera_RBD R449A (Thermus thermophilus, UniProt O07897 424-510, R449A).
T3 sequence: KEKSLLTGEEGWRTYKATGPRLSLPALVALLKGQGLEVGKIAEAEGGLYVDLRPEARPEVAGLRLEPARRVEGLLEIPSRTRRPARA
The data set is described as above. The conditions noted are these: protein: recombinant; label: 5'-fluorescein; hairpin with 5' single strand.

The target of the next data set is T4, Hera_RBD G462C (Thermus thermophilus, UniProt O07897 424-510, G462C).
T4 sequence: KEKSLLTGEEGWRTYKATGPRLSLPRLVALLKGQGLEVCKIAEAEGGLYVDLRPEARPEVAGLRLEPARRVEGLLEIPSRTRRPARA
In words: fluorescence anisotropy; 5 mM Mg2+; negligible effect; Anisotropy: 50 mM Tris/HCl pH 7.5, 150 mM NaCl, 5 mM MgCl2 (Fig 2), 25 C, 50 nM RNA; EMSA: same Tris/NaCl, 12% glycerol, 25 C; NMR: 25 mM Bis-Tris/HCl pH 6.0, 50 mM NaCl, 10% D2O, 37 C. The following applies: protein: recombinant; label: 5'-fluorescein; hairpin with 5' single strand.

For another data set, the target named is T5, Hera full-length (Thermus thermophilus, UniProt O07897 1-510).
T5 sequence: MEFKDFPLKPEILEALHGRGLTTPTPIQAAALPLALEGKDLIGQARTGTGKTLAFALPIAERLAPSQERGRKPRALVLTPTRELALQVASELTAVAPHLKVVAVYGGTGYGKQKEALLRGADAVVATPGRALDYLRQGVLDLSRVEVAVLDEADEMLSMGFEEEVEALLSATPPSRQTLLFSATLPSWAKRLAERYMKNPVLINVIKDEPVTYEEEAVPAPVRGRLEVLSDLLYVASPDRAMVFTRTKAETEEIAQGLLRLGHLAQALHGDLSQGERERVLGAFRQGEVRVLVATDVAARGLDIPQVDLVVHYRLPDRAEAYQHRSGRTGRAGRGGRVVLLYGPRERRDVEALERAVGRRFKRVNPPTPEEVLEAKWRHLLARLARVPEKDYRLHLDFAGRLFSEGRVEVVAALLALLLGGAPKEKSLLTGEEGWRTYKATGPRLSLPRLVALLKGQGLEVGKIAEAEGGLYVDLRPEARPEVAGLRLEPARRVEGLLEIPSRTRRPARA
Kind of data set: fluorescence anisotropy; no ATP; 5 mM Mg2+; Anisotropy: 50 mM Tris/HCl pH 7.5, 150 mM NaCl, 5 mM MgCl2 (Fig 2), 25 C, 50 nM RNA; EMSA: same Tris/NaCl, 12% glycerol, 25 C; NMR: 25 mM Bis-Tris/HCl pH 6.0, 50 mM NaCl, 10% D2O, 37 C. The following applies: protein: recombinant; chain copies: 2; label: 5'-fluorescein; hairpin with 5' single strand.

The next data set has as its target T6, Hera_core (Thermus thermophilus, UniProt O07897 1-369).
T6 sequence: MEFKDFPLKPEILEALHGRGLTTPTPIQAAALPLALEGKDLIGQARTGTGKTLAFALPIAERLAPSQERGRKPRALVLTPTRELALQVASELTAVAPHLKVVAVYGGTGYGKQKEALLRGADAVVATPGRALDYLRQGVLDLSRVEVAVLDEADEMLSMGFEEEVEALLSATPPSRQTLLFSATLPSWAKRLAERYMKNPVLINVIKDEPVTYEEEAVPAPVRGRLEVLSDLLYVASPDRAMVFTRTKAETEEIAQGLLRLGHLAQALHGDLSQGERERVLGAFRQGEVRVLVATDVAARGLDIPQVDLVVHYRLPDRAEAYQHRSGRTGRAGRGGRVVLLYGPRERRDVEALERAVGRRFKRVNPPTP
The data set is described as above. The conditions noted are these: protein: recombinant; label: 5'-fluorescein; hairpin with 5' single strand.

For another data set, the target named is T7, GST-Hera_RBD (Thermus thermophilus, UniProt O07897 424-510).
T7 sequence: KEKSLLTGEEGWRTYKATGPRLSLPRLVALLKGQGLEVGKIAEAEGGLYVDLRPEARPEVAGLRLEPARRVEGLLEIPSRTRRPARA
The description is as above. The conditions noted are these: protein: recombinant; tags: N-terminal GST; label: 5'-fluorescein; hairpin with 5' single strand.

B1: 32mer (structured_RNA)
RNA: GCAGGUCCCAAGGGUUGGGCUGUUCGCCCAUU
In the case of B1, the binding signal was more than 25 fold Kd increase with Hera_RBD R444A/R449A, less than 5 fold Kd increase with Hera_RBD K455A, more than 25 fold Kd increase with Hera_RBD R449A and less than 5 fold Kd increase with Hera_RBD G462C. For the same molecule, the Kd stood at 130 ± 70 nM with Hera full-length, 1000 ± 180 nM in the data set with Hera_core and 450 ± 36 nM with GST-Hera_RBD.
